From PMC10032657 come the findings set out here.

This test deals with anti-CD52 IgG1-RGY (alemtuzumab with E345R, E430G and S440Y). Put plainly: native MS; anti-CD52 IgG1-RGY at a total IgG1 concentration of 2 µM, no peptide; 150 mM ammonium acetate pH 7.5; monomer and hexamer in solution.

B1: anti-CD52 IgG1-RGY (alemtuzumab with E345R, E430G and S440Y) (antibody, V domains shown)
VH: QVQLQESGPGLVRPSQTLSLTCTVSGFTFTDFYMNWVRQPPGRGLEWIGFIRDKAKGYTTEYNPSVKGRVTMLVDTSKNQFSLRLSSVTAADTAVYYCAREGHTAAPFDYWGQGSLVTVSS
VL: DIQMTQSPSSLSASVGDRVTITCKASQNIDKYLNWYQQKPGKAPKLLIYNTNNLQTGVPSRFSGSGSGTDFTFTISSLQPEDIATYYCLQHISRPRTFGQGTKVEIK
Take B1: the stoichiometry N turned out to be 6.
